Among the data in the supplement of paper PMC10567573 are protein stability index values, retold here.

The data set can be described thus: protein stability index of a GFP-peptide fusion (GPS, HEK-293T) (PSI 1-6); higher = more stable. Conditions: c terminus: a fixed tail appended.

± gives the standard deviation.
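Also: 24-mer peptide tiles fused after GFP, lentivirally expressed, FACS-sorted into six equal bins by GFP/DsRed ratio, decoded by Illumina sequencing, PSI is the read-weighted mean bin number.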

In the case of VVKEEISDDNAKLPCFNGRVVSWL [DVL3], the protein stability index is, setting by setting: (treatment: DMSO) 2.94 ± 0.29; (treatment: MLN4924 1 uM, 8 h) 3.19 ± 0.19.
On to ARGIAGEKFDIVKKWGINTYKCTK [ARFIP2], for which the protein stability index is, setting by setting: (treatment: DMSO) 3.3 ± 0.35; (treatment: MLN4924 1 uM, 8 h) 3.27 ± 0.077.
DKRRDLAHLAAEVEGKCLQSGFEM [TRIM39]: the protein stability index came out at 3.97 ± 0.18 (treatment: DMSO) and 4.03 ± 0.36 (treatment: MLN4924 1 uM, 8 h).
The matching figures for PPDTVSRTGLEKAAAGAVGLERRD [SPDEF]: 5.04 ± 0.15 and 5.29 ± 0.39.
The matching figures for LGYCLLLMLAGMGLHYIAFRKVKQ [DNAJC4]: 3.18 ± 0.28 and 3.11 ± 0.38.
The matching figures for NTFFCHSNMCINNTLVCNGLQNCV [NETO1]: 2.13 ± 0.41 and 2.07 ± 0.38.
For AWAAHTRLFQVVGKTDDTLALLNL [TMEM175], the protein stability index turned out to be 2.25 ± 0.13 (treatment: DMSO) and 2.03 ± 0.042 (treatment: MLN4924 1 uM, 8 h).
The matching figures for QGMEVDLVTGLAIEEACYAQTIPT [AUH]: 3.73 ± 0.21 and 3.53 ± 0.2.
In the same order, the values of YRVSDVTKAGHSLELIEPLIKFQV [VDR] are 1.99 ± 0.4 and 2.12 ± 0.21.
As to TAERITQLSAPHCKKLSLELGGKN [ALDH8A1], the protein stability index (treatment: DMSO) was found to be 3.75 ± 0.21 and the protein stability index (treatment: MLN4924 1 uM, 8 h) came out at 3.98 ± 0.19.
In the same order, the values of DYDDGFSMKHTATARFQRNHRLIS [SMARCE1] are 2.99 ± 0.1 and 3.19 ± 0.31.
As for KIANLGSCNDSKLEFRSFWELIGE [S100A14], the protein stability index is 1.91 ± 0.33 (treatment: DMSO) and 2.11 ± 0.38 (treatment: MLN4924 1 uM, 8 h).
The matching figures for YNPDLKKVVEAHKIVLCAVSHVFM [RHOBTB3]: 2.95 ± 0.57 and 2.97 ± 0.26.
In the same order, the values of SKETRLTLMEEVLLLGLKDREGYT [GOLPH3] are 2.8 ± 0.22 and 2.75 ± 0.28.
In the same order, the values of HVMNPLETLSITNCRLSEGDVMHL [PRAME] are 2.54 ± 0.79 and 2.4 ± 0.24.
RWMGLACFRSLAASSPSIRQKKLM [CCDC70]: the protein stability index is 2.29 ± 0.61 (treatment: DMSO) and 2.29 ± 0.4 (treatment: MLN4924 1 uM, 8 h).
In the same order, the values of VSGCPEDLTVGRAPTADDDDDDHD [NOL4L] are 5.62 ± 0.31 and 5.63 ± 0.28.
In the same order, the values of SSTCGQLASYPLALVRTRMQAQAS [SLC25A25] are 2.74 ± 0.23 and 3 ± 0.1.
For the sequence CGTPLRKSNFRVQLFEDPTVDKEV [MNAT1], the protein stability index reads like this: (treatment: DMSO) 3.84 ± 0.09; (treatment: MLN4924 1 uM, 8 h) 3.75 ± 0.16.
The matching figures for VTLQCLAARALDKNKIPYKGFIPE [FEM1A]: 2.69 ± 0.27 and 2.67 ± 0.28.
The matching figures for FLDIPRSRLVKYPLLLKEILKHTP [NET1]: 1.99 ± 0.55 and 2.34 ± 0.18.
In the same order, the values of DLLKFEKKFQSEKAAGSVSKSTQF [FIS1] are 3.82 ± 0.18 and 3.53 ± 0.18.
As for EDFTNTLRELGHAEHEITELTATF [PKD2L1], the protein stability index by setting is: (treatment: DMSO) 4.43 ± 0.34; (treatment: MLN4924 1 uM, 8 h) 4.22 ± 0.091.
In the same order, the values of MRAQAQEQERRERREQAAAAPFPS [TFE3] are 5.09 ± 0.26 and 4.91 ± 0.22.
In the case of STSLPDPGDFDRNVPRICGVCGDR [VDR], the protein stability index (treatment: DMSO) came out at 4.6 ± 0.2 and the protein stability index (treatment: MLN4924 1 uM, 8 h) was 4.56 ± 0.55.
In the same order, the values of SGNDPFAPSEGSAEAAPELDLFAM [SNAP91] are 4.83 ± 0.2 and 4.89 ± 0.23.
In the same order, the values of DYSDHPSGGSYRDSYESYGNSRSA [RBMX] are 4.43 ± 0.36 and 4.44 ± 0.26.
Turning to PVPATAPSPAPAVAAAAAATTAAT [SNAP91], the protein stability index is, setting by setting: (treatment: DMSO) 5.32 ± 0.16; (treatment: MLN4924 1 uM, 8 h) 5.25 ± 0.097.
Turning to PPGLPRVSAYVDTTADLDRKLSFS [SPATS1], the protein stability index amounted to 3.79 ± 0.26 (treatment: DMSO) and 3.96 ± 0.23 (treatment: MLN4924 1 uM, 8 h).
The matching figures for VAQLEDRRSTTDLRGTQFDYERGK [ZSWIM9]: 5.03 ± 0.18 and 5.07 ± 0.24.
The matching figures for ASESEHIPKPQSTGWFGGGFTSYL [MIA2]: 2.4 ± 0.37 and 2.69 ± 0.34.
In the same order, the values of QKYDPDKDEWHKVFDLPESLGGIR [KLHL13] are 3.55 ± 0.23 and 3.93 ± 0.29.
In the case of NQVVSSTNGELNTDDPTAGRSNAP [CSNK1G3], the protein stability index by setting is: (treatment: DMSO) 5.41 ± 0.28; (treatment: MLN4924 1 uM, 8 h) 5.5 ± 0.17.
Regarding FEKWEQETAAGKGKGEARARLKRS [SMTNL2], the protein stability index turned out to be 4.87 ± 0.15 (treatment: DMSO) and 5.07 ± 0.21 (treatment: MLN4924 1 uM, 8 h).
In the same order, the values of YPIYVIPEPPPVSFQPYHPLHFRG [TENT5D] are 2.35 ± 0.28 and 2.32 ± 0.37.
In the same order, the values of AEVRHEIQDGTIHLYIYSIHSIPK [KMT2E] are 2.1 ± 0.76 and 1.51 ± 0.14.
Regarding SPAKASQASKLRASKEEKEDWLSH [FBF1], the protein stability index is 4.92 ± 0.37 (treatment: DMSO) and 4.92 ± 0.3 (treatment: MLN4924 1 uM, 8 h).
The matching figures for HFSQIVIFMLCTLVLAIPLLLILV [OR10K2]: 2.24 ± 0.25 and 2.25 ± 0.19.
In the same order, the values of EMFLYFEDHGLVTCSADHLIILWK [WDR41] are 2.76 ± 0.4 and 2.68 ± 0.67.
For the sequence SFMPLVIKVTSATSVNLGILTADL [SLC35F2], the protein stability index amounted to 2.7 ± 1 (treatment: DMSO) and 2.87 ± 0.49 (treatment: MLN4924 1 uM, 8 h).
Consider VAARTPAVEGLTEAEEEELRAELT [TPD52L2], for which the protein stability index was determined as 5.56 ± 0.23 (treatment: DMSO) and 5.26 ± 0.26 (treatment: MLN4924 1 uM, 8 h).
The matching figures for AVVASSVNSYYSSPAQQVPKNPAL [TOR1AIP2]: 3.51 ± 0.16 and 3.46 ± 0.18.
The matching figures for LWSDPMAQEGCKANTIRGGGCYFG [PPEF2]: 2.68 ± 0.73 and 2.5 ± 0.44.
The matching figures for ILENSSQKENVFKCDSLKEECIPE [FAN1]: 4.68 ± 0.37 and 4.95 ± 0.09.
LTLKVCKPQAPQKLDPTLSSCFFI: the protein stability index (treatment: DMSO) was 2.37 ± 0.59 and the protein stability index (treatment: MLN4924 1 uM, 8 h) stood at 2.3 ± 0.3.
The matching figures for PGAGVPSGSGGTVAPATMGSARSH [ZBTB22]: 4.75 ± 0.16 and 4.8 ± 0.15.
For the sequence RKPGMSSTARRSRAASSQRAEEED [CHMP4C], the protein stability index was found to be 5.38 ± 0.17 (treatment: DMSO) and 5.41 ± 0.25 (treatment: MLN4924 1 uM, 8 h).
In the same order, the values of FPELGYSYGGGSASSQHSEGSRSS [DVL3] are 3.39 ± 0.28 and 4.03 ± 0.53.
The matching figures for TLCQFPETLLGDPKRRMRYFDPLR [KCNA3]: 2.26 ± 0.14 and 2.5 ± 0.34.
PQPLSFKEPPLLLGVLHPNTKLRQ [APMAP]: the protein stability index (treatment: DMSO) turned out to be 3.48 ± 0.17 and the protein stability index (treatment: MLN4924 1 uM, 8 h) came out at 3.59 ± 0.2.
The matching figures for SESSLEMDDERYFNEMSAQGLRPR [CCDC6]: 4.78 ± 0.2 and 4.85 ± 0.22.
In the same order, the values of KAKFCSTVANDVMLRTGLGVIRMW [NETO1] are 2.7 ± 0.51 and 2.27 ± 0.29.
The matching figures for NRRLRALEEQGATWRHRETLIIAV [FATE1]: 2.46 ± 0.39 and 2.22 ± 0.15.
Consider DITRYYLCLQLRDDIVSGRLPCSF [EPB41L3], for which the protein stability index worked out at 2.97 ± 0.57 (treatment: DMSO) and 2.63 ± 0.5 (treatment: MLN4924 1 uM, 8 h).
The matching figures for RASATTTITTAAATSVTVPGAGVP [ZBTB22]: 4.49 ± 0.19 and 4.45 ± 0.3.
In the same order, the values of YQYLHYALFKANRLEKAVAAAYTF [P3H4] are 2.22 ± 0.17 and 2.55 ± 0.25.
The matching figures for QRIALRLGNGNDKKEMNKSDLNTN [KMT2E]: 4.78 ± 0.12 and 4.47 ± 0.28.
Turning to VIVPKEEGVISVSEDRTVRVWLKR [WDFY2], the protein stability index was 2.78 ± 0.32 (treatment: DMSO) and 3.17 ± 0.2 (treatment: MLN4924 1 uM, 8 h).
In the case of VEEVVYDLSIRGFNKETAAACVEK [TSN], the protein stability index worked out at 4.63 ± 0.22 (treatment: DMSO) and 4.51 ± 0.56 (treatment: MLN4924 1 uM, 8 h).
The matching figures for TQKLSHSTKPSGSPLEEKHDQCKC [MATN2]: 5.15 ± 0.38 and 4.94 ± 0.29.
In the same order, the values of IQDVVQPLTLQVQRPLVSVTVSDA [AUP1] are 3.56 ± 0.28 and 3.58 ± 0.22.
For GEQDCCGERVVINISGLRFETQLK [KCNA3], the protein stability index by setting is: (treatment: DMSO) 2.52 ± 0.21; (treatment: MLN4924 1 uM, 8 h) 2.57 ± 0.35.
The matching figures for MKFVPRYSLVLELSDSGAFRRSLH [APMAP]: 2.17 ± 0.54 and 2.03 ± 0.51.
The matching figures for GDLQETTVVTGLGPDTQDLEGQSP [PBXIP1]: 5.62 ± 0.23 and 5.58 ± 0.2.
The matching figures for ISVQELMGCLGVAKEDGKADTKKR [SMOC2]: 3.88 ± 0.33 and 3.92 ± 0.59.
Consider KVKWTHEEDEQLRALVRQFGQQDW [MYBL2], for which the protein stability index was found to be 3.19 ± 0.44 (treatment: DMSO) and 3.44 ± 0.12 (treatment: MLN4924 1 uM, 8 h).
The matching figures for NSFGAILQGSLFGLAGLLPASYTA [SLC29A1]: 2.21 ± 0.27 and 2.9 ± 0.84.
In the same order, the values of SQNIQEDDLQQLQLFTEYGRLAMD [ATL3] are 4.3 ± 0.27 and 4.09 ± 0.47.
In the same order, the values of HLFAGAEVILLVVMAYDRYMAICK [OR4A15] are 2.67 ± 0.29 and 3.02 ± 0.68.
In turn, SLLVHGFKPACMSEIKNLERYMCS [TENT5D] showed a protein stability index (treatment: DMSO) of 2.48 ± 0.41 and a protein stability index (treatment: MLN4924 1 uM, 8 h) of 2.41 ± 0.29.
On to LVFPSSSSSSSSQAPGQPPGNQAE [ZBTB22], for which the protein stability index is 5.06 ± 0.2 (treatment: DMSO) and 4.71 ± 0.067 (treatment: MLN4924 1 uM, 8 h).
Turning to REEQQLLASTSKPVVKLLHNRSNN [KCTD13], the protein stability index runs as follows: (treatment: DMSO) 4.75 ± 0.23; (treatment: MLN4924 1 uM, 8 h) 4.89 ± 0.14.
